According to paper PMC7613265:

What was measured:
[1] = biological target: RNase E (1-850), catalytically inactive, truncated degradosome scaffold;RhlB;Enolase D303N;D346N (Escherichia coli;Escherichia coli;Escherichia coli) (UniProt P21513+P0A8J8+P0A6P9); assay: SEC-SAXS; conditions: SEC-SAXS buffer not given in the material. EMSA (30S ribosomal subunit, not listed because it is a ribonucleoprotein): 40 mM Tris-HCl pH 7.5, 100 mM NaCl …
[2] = biological target: RNase E (1-850) (E. coli) (UniProt P21513); assay: AUC; sedimentation velocity, truncated degradosome at 4 mg/ml in buffer S6 (50 mM Tris-HCl pH 7.5, 400 mM NaCl, 100 mM KCl, 5 mM MgCl2, 1 mM TCEP, 0.02% beta-DDM, 10% glycerol), 4 C

Row | Substance | binding [1] | stoichiometry N [2]
1 | GAAGCUGUUUUGGCGGAUGAGAGAAGAUUUUCAGCCUGAUACAGAUUAAAUCAGAACGCAGAAGCGGUCUGAUAAAACAGAAUUUGCCUGGCGGCAGUAGCGCGGUGGUCCCACCUGACCCCAUGCCGAACUCAGAAGUGAAACGCCGUAGCGCCGAUGGUAGUGUGGGGUCUCCCCAUGCGAGAGUAGGGAACUGCCAGGCAUCAAAUAAAACGAAAGGCUCAGUCGAAAGACUGGGCCUUUCG [9S RNA (5S rRNA precursor)] | binds | 
2 | RNase E (1-850) (from UniProt P21513 1-850) (domain or fragment) |  | 4
